From patent publication US20140157444A1 (COUNCIL OF SCIENTIFIC AND INDUSTRIAL RESEARCH, published 2014)

Legend:
mHDAC2-FLAG = biological target: T1, mHDAC2-FLAG (mouse, UniProt P70288 1-488); test: co-immunoprecipitation from co-transfected HEK 293 cells: anti-FLAG IP, anti-Myc blot
T1 construct: Species is read from the prefix 'm' of the plasmid name; also called pCMX-mHDAC2-FLAG; not shown: FLAG tag
From the text: (§1) FIG. 10. Identification of proteins interacting with WDR13. […] B) Immunolocalization of WDR13 protein in HELA cells transfected with pCMV-FLAG-Wdr13 (SEQ ID NO: 3) vector using anti FLAG antibody. C) Silver stained gel of immunoprecipitated proteins using anti FLAG antibody from HELA cells transfected with pCMV-FLAG control and pCMV-FLAG-Wdr13 vectors having SEQ ID NO: 3.
(§2) FIG. 11. Interactions of WDR13 with ERs, HDACs and PHIP1 A) HEK 293 cells were co-transfected with FLAG-Wdr13 (from the position 922 to 2443 in SEQ ID NO: 3) and GFP-ERα, grown in the presence or absence of estradiol. The cell lysate was immunoprecipitated with anti FLAG antibody and immunoblotted with anti GFP antibody. […] B) HEK 293 cells were co-transfected with FLAG-Wdr13 (from the position 922 to 2443 in SEQ ID NO: 3) and Myc-ERβ I (from the position 900-2673 in SEQ ID NO: 6), grown in the presence or absence of estradiol. The cell lysate was immunoprecipitated with anti FLAG antibody and immunoblotted with anti Myc antibody. […] C) HEK 293 cells were co-transfected with Myc-Wdr13 (from the position 900 to 2448 in SEQ ID NO: 4)/various FLAG-HDACs and the cell lysate was immunoprecipitated with anti FLAG antibody and immunoblotted with anti Myc antibody.

hHDAC4-FLAG = biological target: T2, hHDAC4-FLAG (human, UniProt P56524 1-1084, limits assumed); test: as above
T2 construct: Species is read from the prefix 'h' of the plasmid name; also called pCMX-hHDAC4-FLAG; not shown: FLAG tag
From the text: as §1, §2

T1 sequence (P70288 whole entry): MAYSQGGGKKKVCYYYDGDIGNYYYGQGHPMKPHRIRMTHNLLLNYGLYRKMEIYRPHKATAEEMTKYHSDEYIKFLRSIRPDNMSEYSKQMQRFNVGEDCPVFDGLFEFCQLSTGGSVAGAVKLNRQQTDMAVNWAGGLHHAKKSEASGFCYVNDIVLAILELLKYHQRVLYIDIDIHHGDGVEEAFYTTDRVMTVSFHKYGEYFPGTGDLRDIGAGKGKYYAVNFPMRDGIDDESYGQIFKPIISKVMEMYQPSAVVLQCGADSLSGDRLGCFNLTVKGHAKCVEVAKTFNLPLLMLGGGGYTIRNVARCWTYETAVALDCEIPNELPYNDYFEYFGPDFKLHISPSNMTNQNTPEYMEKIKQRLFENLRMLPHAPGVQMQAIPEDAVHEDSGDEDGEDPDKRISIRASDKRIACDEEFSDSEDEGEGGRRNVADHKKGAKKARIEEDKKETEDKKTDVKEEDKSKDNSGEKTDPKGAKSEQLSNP
T2 sequence (P56524 whole entry): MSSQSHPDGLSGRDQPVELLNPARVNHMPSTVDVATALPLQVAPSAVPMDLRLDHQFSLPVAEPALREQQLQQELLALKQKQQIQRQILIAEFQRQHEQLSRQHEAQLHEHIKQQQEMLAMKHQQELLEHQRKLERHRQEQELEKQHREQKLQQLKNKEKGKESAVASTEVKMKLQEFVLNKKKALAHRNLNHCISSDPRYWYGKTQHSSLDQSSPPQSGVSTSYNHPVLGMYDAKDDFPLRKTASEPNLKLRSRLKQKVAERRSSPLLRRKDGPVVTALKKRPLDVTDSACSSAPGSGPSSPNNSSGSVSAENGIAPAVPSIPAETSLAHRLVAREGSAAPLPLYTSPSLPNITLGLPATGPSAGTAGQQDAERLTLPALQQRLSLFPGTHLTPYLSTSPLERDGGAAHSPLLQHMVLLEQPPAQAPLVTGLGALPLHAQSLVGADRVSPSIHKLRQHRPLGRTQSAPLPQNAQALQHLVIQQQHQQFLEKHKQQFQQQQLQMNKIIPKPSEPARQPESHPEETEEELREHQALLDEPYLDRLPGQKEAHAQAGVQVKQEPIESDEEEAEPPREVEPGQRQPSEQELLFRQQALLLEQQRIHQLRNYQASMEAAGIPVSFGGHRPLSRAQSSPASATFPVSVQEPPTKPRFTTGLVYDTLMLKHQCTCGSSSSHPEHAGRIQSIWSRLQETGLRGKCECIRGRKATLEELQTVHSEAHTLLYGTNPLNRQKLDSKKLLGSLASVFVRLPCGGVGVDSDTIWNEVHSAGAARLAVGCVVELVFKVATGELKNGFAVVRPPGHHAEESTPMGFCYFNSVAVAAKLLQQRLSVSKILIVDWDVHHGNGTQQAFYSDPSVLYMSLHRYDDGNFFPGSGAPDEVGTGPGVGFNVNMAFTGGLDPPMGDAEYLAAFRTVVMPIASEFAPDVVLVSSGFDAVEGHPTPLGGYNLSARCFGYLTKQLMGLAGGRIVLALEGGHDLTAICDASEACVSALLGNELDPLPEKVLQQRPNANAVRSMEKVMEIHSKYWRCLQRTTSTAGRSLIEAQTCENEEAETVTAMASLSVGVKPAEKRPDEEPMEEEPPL

B1: Myc WDR13 fusion protein (other, mouse, UniProt Q91V09 1-485, looked up)
chain: MAAVWQQVLAVDARYNAYRTPTFPQFRTQYIRRRSQLLRENAKAGHPPALRRQYLRLRGQLLGQRYGPLSEPGSARAYSNSIVRSSRTTLDRMEDFEDDPRALGARGHRRSVSRGSYQLQAQMNRAVYEDRPPGSVVPTSVAEASRAMAGDTSLSENYAFAGMYHVFDQHVDEAVPRVRFANDDRHRLACCSLDGSISLCQLVPAPPTVLHVLRGHTRGVSDFAWSLSNDILVSTSLDATMRIWASEDGRCIREIPDPDGAELLCCTFQPVNNNLTVVGNAKHNVHVMNISTGKKVKGGSSKLTGRVLALSFDAPGRLLWAGDDRGSVFSFLFDMATGKLTKAKRLVVHEGSPVTSISARSWVSREARDPSLLINACLNKLLLYRVVDNEGALQLKRSFPIEQSSHPVRSIFCPLMSFRQGACVVTGSEDMCVHFFDVERAAKAAVNKLQGHSAPVLDVSFNCDESLLASSDASGMVIVWRREQK
notes: Overexpressed in HEK 293 cells; (mouse gene); also called pCMV-Myc-Wdr13; not shown: Myc peptide at the N-terminus, from the pCMV-Myc vector
binding result (mHDAC2-FLAG): no binding
binding result (hHDAC4-FLAG): no binding
